From PMC4686814 (Nature communications, 2015)
Values joined by “and” are separate entries in the source; they are usually repeats but may differ in a detail not shown here. Equal values may be shown once.

What was measured:
[1] = target: the molecule itself; test: SEC-SAXS; online SEC (Superose 6 10/300 GL) in 50 mM Tris pH 8.8, 50 mM NaCl; 500 µl at 220 µM injected; BM29 at the ESRF
[2] = target: the molecule itself; test: SEC; Superose 6; N-terminally His-tagged full length MsVps4 and mutants at 70 µM, a concentration that induces dodecamer formation; no nucleotide
[3] = target: the molecule itself; test: as above; remark: listed apart in the source
[4] = target: hVPS4B Phe160Ala (human) (UniProt O75351)
[5] = target: T1, hVPS4B E235Q (catalytic mutant of human VPS4B) (human), O75351; test: SEC; Superose 6; hVPS4B E235Q and mutants of it at 100 µM with 1 mM ATP and 5 mM MgCl2; conditions: remark: other sources report otherwise
T1 chain: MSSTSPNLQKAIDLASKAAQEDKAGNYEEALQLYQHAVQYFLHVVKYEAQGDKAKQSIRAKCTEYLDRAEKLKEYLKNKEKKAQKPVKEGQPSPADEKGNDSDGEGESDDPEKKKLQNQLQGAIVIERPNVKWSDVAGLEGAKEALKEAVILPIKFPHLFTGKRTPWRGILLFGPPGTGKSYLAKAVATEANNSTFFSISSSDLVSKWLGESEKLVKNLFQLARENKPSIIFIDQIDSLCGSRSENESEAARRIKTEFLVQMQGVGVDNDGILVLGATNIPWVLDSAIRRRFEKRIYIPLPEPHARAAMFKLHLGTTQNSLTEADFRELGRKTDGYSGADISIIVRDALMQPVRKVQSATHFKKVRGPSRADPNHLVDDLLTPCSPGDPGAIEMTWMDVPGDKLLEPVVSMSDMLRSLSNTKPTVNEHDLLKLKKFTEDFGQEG

[6] = target: hVPS4B Met350Ala (human) (UniProt O75351)
[7] = target: the molecule itself; test: SEC; Superose 6; MsVps4ΔMIT at 200 µM (Fig. 1b) and at a series of concentrations up to 0.5 mM (Supplementary Fig. 2); no nucleotide

| Binder | stoichiometry N [2] | stoichiometry N [3] | also measured |
| --- | --- | --- | --- |
| MsVPS4 M318A, full length, His tag cleaved (enzyme, Metallosphera sedula, UniProt A4YHC5 1-369, looked up) MSAQVMLEEMARKYAIAAVRADKEGRREDAINNYKKAIEVLTQIVTLYPDMVARNAYEQMINEYKKRLETLNQMVPEGGEETEKAEEDIVMKEKPKVTLNEIVGLEDVKEALKEAVVYPSKRPDLFPLGWPRGILLYGPPGCGKTMIAAAVANELDSEFIHVDAASIMSKWLGEAEKNVAKIFKTARELSKKENKPAIIFIDELDALLASYTSEVGGEARVRNQFLKEMDGLADKNEISKVYVIGATNKPWRLDEPFLRRFQKRIYITLPDKAHRLELLKHYSSKVKLDPNVNLEELAELTDGYTASDIRDIVQSAHARVVKEMFEKNLQEPRAINMDDFREVLKVRKPSVNQDMLKAYAAWHEKFKAL | – | – | stoichiometry N [1]: 6 |
| MsVps4 Glu174Ala Glu176Ala, full length, N-terminally His-tagged (enzyme, Metallosphera sedula, UniProt A4YHC5 1-369, looked up) MSAQVMLEEMARKYAIAAVRADKEGRREDAINNYKKAIEVLTQIVTLYPDMVARNAYEQMINEYKKRLETLNQMVPEGGEETEKAEEDIVMKEKPKVTLNEIVGLEDVKEALKEAVVYPSKRPDLFPLGWPRGILLYGPPGCGKTMIAAAVANELDSEFIHVDAASIMSKWLGAAAKNVAKIFKTARELSKKENKPAIIFIDELDALLASYTSEVGGEARVRNQFLKEMDGLADKNEISKVYVIGATNKPWRLDEPFLRRFQKRIYITLPDKAHRLELLKHYSSKVKLDPNVNLEELAELTDGYTASDIRDIVQSAHMRVVKEMFEKNLQEPRAINMDDFREVLKVRKPSVNQDMLKAYAAWHEKFKAL | 12 | 6 and 2 | – |
| MsVps4 Ser169Ala, full length, N-terminally His-tagged (enzyme, Metallosphera sedula, UniProt A4YHC5 1-369, looked up) MSAQVMLEEMARKYAIAAVRADKEGRREDAINNYKKAIEVLTQIVTLYPDMVARNAYEQMINEYKKRLETLNQMVPEGGEETEKAEEDIVMKEKPKVTLNEIVGLEDVKEALKEAVVYPSKRPDLFPLGWPRGILLYGPPGCGKTMIAAAVANELDSEFIHVDAASIMAKWLGEAEKNVAKIFKTARELSKKENKPAIIFIDELDALLASYTSEVGGEARVRNQFLKEMDGLADKNEISKVYVIGATNKPWRLDEPFLRRFQKRIYITLPDKAHRLELLKHYSSKVKLDPNVNLEELAELTDGYTASDIRDIVQSAHMRVVKEMFEKNLQEPRAINMDDFREVLKVRKPSVNQDMLKAYAAWHEKFKAL | 12 | 6 | – |
| MsVps4 Arg259Ala Arg260Ala, full length, N-terminally His-tagged (enzyme, Metallosphera sedula, UniProt A4YHC5 1-369, looked up) MSAQVMLEEMARKYAIAAVRADKEGRREDAINNYKKAIEVLTQIVTLYPDMVARNAYEQMINEYKKRLETLNQMVPEGGEETEKAEEDIVMKEKPKVTLNEIVGLEDVKEALKEAVVYPSKRPDLFPLGWPRGILLYGPPGCGKTMIAAAVANELDSEFIHVDAASIMSKWLGEAEKNVAKIFKTARELSKKENKPAIIFIDELDALLASYTSEVGGEARVRNQFLKEMDGLADKNEISKVYVIGATNKPWRLDEPFLAAFQKRIYITLPDKAHRLELLKHYSSKVKLDPNVNLEELAELTDGYTASDIRDIVQSAHMRVVKEMFEKNLQEPRAINMDDFREVLKVRKPSVNQDMLKAYAAWHEKFKAL | 6 | 2 | – |
| MsVps4 Ile89Glu, full length, N-terminally His-tagged (enzyme, Metallosphera sedula, UniProt A4YHC5 1-369, looked up) MSAQVMLEEMARKYAIAAVRADKEGRREDAINNYKKAIEVLTQIVTLYPDMVARNAYEQMINEYKKRLETLNQMVPEGGEETEKAEEDEVMKEKPKVTLNEIVGLEDVKEALKEAVVYPSKRPDLFPLGWPRGILLYGPPGCGKTMIAAAVANELDSEFIHVDAASIMSKWLGEAEKNVAKIFKTARELSKKENKPAIIFIDELDALLASYTSEVGGEARVRNQFLKEMDGLADKNEISKVYVIGATNKPWRLDEPFLRRFQKRIYITLPDKAHRLELLKHYSSKVKLDPNVNLEELAELTDGYTASDIRDIVQSAHMRVVKEMFEKNLQEPRAINMDDFREVLKVRKPSVNQDMLKAYAAWHEKFKAL | 12 | 6 | – |
| MsVps4 Met318Ala, full length, N-terminally His-tagged (enzyme, Metallosphera sedula, UniProt A4YHC5 1-369, looked up) MSAQVMLEEMARKYAIAAVRADKEGRREDAINNYKKAIEVLTQIVTLYPDMVARNAYEQMINEYKKRLETLNQMVPEGGEETEKAEEDIVMKEKPKVTLNEIVGLEDVKEALKEAVVYPSKRPDLFPLGWPRGILLYGPPGCGKTMIAAAVANELDSEFIHVDAASIMSKWLGEAEKNVAKIFKTARELSKKENKPAIIFIDELDALLASYTSEVGGEARVRNQFLKEMDGLADKNEISKVYVIGATNKPWRLDEPFLRRFQKRIYITLPDKAHRLELLKHYSSKVKLDPNVNLEELAELTDGYTASDIRDIVQSAHARVVKEMFEKNLQEPRAINMDDFREVLKVRKPSVNQDMLKAYAAWHEKFKAL | 6 | 2 | – |
| MsVps4 Glu214Tyr, full length, N-terminally His-tagged (enzyme, Metallosphera sedula, UniProt A4YHC5 1-369, looked up) MSAQVMLEEMARKYAIAAVRADKEGRREDAINNYKKAIEVLTQIVTLYPDMVARNAYEQMINEYKKRLETLNQMVPEGGEETEKAEEDIVMKEKPKVTLNEIVGLEDVKEALKEAVVYPSKRPDLFPLGWPRGILLYGPPGCGKTMIAAAVANELDSEFIHVDAASIMSKWLGEAEKNVAKIFKTARELSKKENKPAIIFIDELDALLASYTSYVGGEARVRNQFLKEMDGLADKNEISKVYVIGATNKPWRLDEPFLRRFQKRIYITLPDKAHRLELLKHYSSKVKLDPNVNLEELAELTDGYTASDIRDIVQSAHMRVVKEMFEKNLQEPRAINMDDFREVLKVRKPSVNQDMLKAYAAWHEKFKAL | 12 | 6 and 2 | – |
| MsVps4 wild type, full length, N-terminally His-tagged (enzyme, Metallosphera sedula, UniProt A4YHC5 1-369, looked up) MSAQVMLEEMARKYAIAAVRADKEGRREDAINNYKKAIEVLTQIVTLYPDMVARNAYEQMINEYKKRLETLNQMVPEGGEETEKAEEDIVMKEKPKVTLNEIVGLEDVKEALKEAVVYPSKRPDLFPLGWPRGILLYGPPGCGKTMIAAAVANELDSEFIHVDAASIMSKWLGEAEKNVAKIFKTARELSKKENKPAIIFIDELDALLASYTSEVGGEARVRNQFLKEMDGLADKNEISKVYVIGATNKPWRLDEPFLRRFQKRIYITLPDKAHRLELLKHYSSKVKLDPNVNLEELAELTDGYTASDIRDIVQSAHMRVVKEMFEKNLQEPRAINMDDFREVLKVRKPSVNQDMLKAYAAWHEKFKAL | 12 | 6 and 2 | – |
| hVPS4B Phe160Ala (enzyme) MSSTSPNLQKAIDLASKAAQEDKAGNYEEALQLYQHAVQYFLHVVKYEAQGDKAKQSIRAKCTEYLDRAEKLKEYLKNKEKKAQKPVKEGQPSPADEKGNDSDGEGESDDPEKKKLQNQLQGAIVIERPNVKWSDVAGLEGAKEALKEAVILPIKFPHLATGKRTPWRGILLFGPPGTGKSYLAKAVATEANNSTFFSISSSDLVSKWLGESEKLVKNLFQLARENKPSIIFIDEIDSLCGSRSENESEAARRIKTEFLVQMQGVGVDNDGILVLGATNIPWVLDSAIRRRFEKRIYIPLPEPHARAAMFKLHLGTTQNSLTEADFRELGRKTDGYSGADISIIVRDALMQPVRKVQSATHFKKVRGPSRADPNHLVDDLLTPCSPGDPGAIEMTWMDVPGDKLLEPVVSMSDMLRSLSNTKPTVNEHDLLKLKKFTEDFGQEG | – | – | ATPase activity at 37°C with ATP/Mg, percent of wild-type hVPS4B [4]: 0% |
| hVPS4B E235Q (catalytic mutant of human VPS4B), O75351 1-444 (enzyme) MSSTSPNLQKAIDLASKAAQEDKAGNYEEALQLYQHAVQYFLHVVKYEAQGDKAKQSIRAKCTEYLDRAEKLKEYLKNKEKKAQKPVKEGQPSPADEKGNDSDGEGESDDPEKKKLQNQLQGAIVIERPNVKWSDVAGLEGAKEALKEAVILPIKFPHLFTGKRTPWRGILLFGPPGTGKSYLAKAVATEANNSTFFSISSSDLVSKWLGESEKLVKNLFQLARENKPSIIFIDQIDSLCGSRSENESEAARRIKTEFLVQMQGVGVDNDGILVLGATNIPWVLDSAIRRRFEKRIYIPLPEPHARAAMFKLHLGTTQNSLTEADFRELGRKTDGYSGADISIIVRDALMQPVRKVQSATHFKKVRGPSRADPNHLVDDLLTPCSPGDPGAIEMTWMDVPGDKLLEPVVSMSDMLRSLSNTKPTVNEHDLLKLKKFTEDFGQEG | – | – | stoichiometry N [5]: 6 |
| hVPS4B Met350Ala (enzyme) MSSTSPNLQKAIDLASKAAQEDKAGNYEEALQLYQHAVQYFLHVVKYEAQGDKAKQSIRAKCTEYLDRAEKLKEYLKNKEKKAQKPVKEGQPSPADEKGNDSDGEGESDDPEKKKLQNQLQGAIVIERPNVKWSDVAGLEGAKEALKEAVILPIKFPHLFTGKRTPWRGILLFGPPGTGKSYLAKAVATEANNSTFFSISSSDLVSKWLGESEKLVKNLFQLARENKPSIIFIDEIDSLCGSRSENESEAARRIKTEFLVQMQGVGVDNDGILVLGATNIPWVLDSAIRRRFEKRIYIPLPEPHARAAMFKLHLGTTQNSLTEADFRELGRKTDGYSGADISIIVRDALAQPVRKVQSATHFKKVRGPSRADPNHLVDDLLTPCSPGDPGAIEMTWMDVPGDKLLEPVVSMSDMLRSLSNTKPTVNEHDLLKLKKFTEDFGQEG | – | – | ATPase activity at 37°C with ATP/Mg, percent of wild-type hVPS4B [6]: 0% |
| MsVps4ΔMIT (residues 75 to 369) (domain or fragment, Metallosphera sedula, UniProt A4YHC5 75-369, looked up) VPEGGEETEKAEEDIVMKEKPKVTLNEIVGLEDVKEALKEAVVYPSKRPDLFPLGWPRGILLYGPPGCGKTMIAAAVANELDSEFIHVDAASIMSKWLGEAEKNVAKIFKTARELSKKENKPAIIFIDELDALLASYTSEVGGEARVRNQFLKEMDGLADKNEISKVYVIGATNKPWRLDEPFLRRFQKRIYITLPDKAHRLELLKHYSSKVKLDPNVNLEELAELTDGYTASDIRDIVQSAHMRVVKEMFEKNLQEPRAINMDDFREVLKVRKPSVNQDMLKAYAAWHEKFKAL | – | – | stoichiometry N [7]: 6 |
